According to patent US20160185837A1 (Medimmune Limited, priority 2013, published 2016):

T1: human GIP receptor (hGIPr) (Homo sapiens, UniProt P48546)
T1 construct: expressed in transfected cells
T1 sequence (P48546 22-466): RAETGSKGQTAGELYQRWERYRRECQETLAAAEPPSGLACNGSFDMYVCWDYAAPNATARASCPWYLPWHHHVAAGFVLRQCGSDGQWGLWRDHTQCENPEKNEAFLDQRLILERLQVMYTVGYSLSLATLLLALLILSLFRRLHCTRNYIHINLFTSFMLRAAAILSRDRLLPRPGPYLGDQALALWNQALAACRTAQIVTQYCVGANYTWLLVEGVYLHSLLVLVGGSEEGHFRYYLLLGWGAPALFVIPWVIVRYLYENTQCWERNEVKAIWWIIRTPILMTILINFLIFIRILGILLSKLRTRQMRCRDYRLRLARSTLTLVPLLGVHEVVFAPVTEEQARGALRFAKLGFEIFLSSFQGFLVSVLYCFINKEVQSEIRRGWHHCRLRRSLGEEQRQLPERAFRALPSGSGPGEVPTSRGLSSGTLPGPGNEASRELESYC

T2: mouse GIP receptor (mGIPr) (Mus musculus, UniProt Q0P543)
T2 construct: expressed in transfected cells; host or cells: HEK293s or CHO cells
T2 sequence (Q0P543 19-460): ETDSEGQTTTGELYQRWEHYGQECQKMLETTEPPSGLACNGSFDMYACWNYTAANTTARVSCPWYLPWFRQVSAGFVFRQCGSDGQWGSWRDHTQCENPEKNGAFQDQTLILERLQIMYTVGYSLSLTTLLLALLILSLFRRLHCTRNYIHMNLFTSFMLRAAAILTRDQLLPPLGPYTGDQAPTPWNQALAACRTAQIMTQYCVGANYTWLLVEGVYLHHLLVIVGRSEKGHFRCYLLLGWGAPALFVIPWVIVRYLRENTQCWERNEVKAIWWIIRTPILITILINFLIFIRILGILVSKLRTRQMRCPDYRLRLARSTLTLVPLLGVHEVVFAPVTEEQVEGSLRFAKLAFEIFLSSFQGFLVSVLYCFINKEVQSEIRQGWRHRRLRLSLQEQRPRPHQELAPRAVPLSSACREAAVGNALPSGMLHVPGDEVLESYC

T3: rat GIP receptor (rGIPr) (Rattus norvegicus, UniProt P43219)
T3 construct: expressed in transfected cells; host or cells: HEK293s or CHO cells
T3 sequence (P43219 19-455): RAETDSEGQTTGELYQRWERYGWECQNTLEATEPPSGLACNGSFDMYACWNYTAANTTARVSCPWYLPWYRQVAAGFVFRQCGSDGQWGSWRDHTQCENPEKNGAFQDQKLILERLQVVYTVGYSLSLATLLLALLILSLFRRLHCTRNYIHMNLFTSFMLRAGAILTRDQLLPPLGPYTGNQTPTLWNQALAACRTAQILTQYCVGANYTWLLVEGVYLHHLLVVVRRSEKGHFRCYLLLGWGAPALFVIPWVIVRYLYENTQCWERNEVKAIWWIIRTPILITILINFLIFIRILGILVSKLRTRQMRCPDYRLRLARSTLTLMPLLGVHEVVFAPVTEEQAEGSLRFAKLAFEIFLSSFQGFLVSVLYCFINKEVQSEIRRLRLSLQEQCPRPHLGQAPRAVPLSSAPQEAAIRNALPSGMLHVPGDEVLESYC


Tests used:
Type in all cases: cell-based
[1] = target: T4, human GLP-1 receptor (hGLP-1r) (Homo sapiens, UniProt P43220); assay: BSA-cAMP assay, cells expressing human GLP-1 receptor
T4 construct: expressed in transfected cells
Procedure, shortened: (§1)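 EC50 came from an unconstrained 4-parameter logistic fit of HTRF cAMP data expressed as percent of maximal native agonist activation, tested on two occasions. Thawed receptor-expressing cells (hGLP-1r, hGIPr at 0.5×10^5 cells/ml) treated 30 min at room temperature in 0.1% BSA-containing medium; two distinct hGIPr lines.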

[2] = target: T1, human GIP receptor (hGIPr); assay: BSA-cAMP assay, cells expressing human GIP receptor
Procedure, shortened: as §1

[3] = target: T2, mouse GIP receptor (mGIPr); assay: BSA-cAMP assay, cells expressing mouse GIP receptor
Procedure, shortened: (§2)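 EC50 is the midpoint of an unconstrained 4-parameter logistic fit to HTRF cAMP data, expressed as percent of maximal native agonist response, from two separate occasions. Rodent (mouse, rat) GLP-1R- or GIPR-expressing cells were incubated with compound 30 min at room temperature in 0.1% BSA medium, in duplicate.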

[4] = target: T3, rat GIP receptor (rGIPr); assay: BSA-cAMP assay, cells expressing rat GIP receptor
Procedure, shortened: as §2

T4 sequence (P43220 24-463): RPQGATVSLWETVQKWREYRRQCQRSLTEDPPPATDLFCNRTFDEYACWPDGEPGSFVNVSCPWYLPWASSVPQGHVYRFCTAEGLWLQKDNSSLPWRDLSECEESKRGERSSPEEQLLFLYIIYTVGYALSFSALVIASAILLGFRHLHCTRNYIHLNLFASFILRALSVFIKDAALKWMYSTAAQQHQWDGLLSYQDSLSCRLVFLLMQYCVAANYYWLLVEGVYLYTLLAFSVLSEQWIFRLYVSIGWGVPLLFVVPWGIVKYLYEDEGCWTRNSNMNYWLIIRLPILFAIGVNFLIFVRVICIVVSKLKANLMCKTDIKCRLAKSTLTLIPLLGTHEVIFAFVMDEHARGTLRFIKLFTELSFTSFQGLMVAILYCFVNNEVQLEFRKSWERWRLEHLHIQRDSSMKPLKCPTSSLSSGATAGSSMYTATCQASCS

EC50 ([1]; Batch 1, BSA-cAMP assay, read-out: hGLP1r cAMP activity EC50) [nM] | EC50 ([2]; Batch 1, BSA-cAMP assay, read-out: hGIPr cAMP activity EC50) [nM] | EC50 ([3]; Batch 1, BSA-cAMP assay, read-out: mGIPr cAMP activity EC50) [nM] | EC50 ([4]; Batch 1, BSA-cAMP assay, read-out: rGIPr cAMP activity EC50) [nM] | potency for GLP-1r, in words ([1]; human receptor) | potency for GIPr, in words ([2]; human receptor) | potency for GIPr, in words ([3]; mouse receptor) | potency for GIPr, in words ([4]; rat receptor) | Molecule
4.4 | 0.057 | 0.031 | 0.0099 |  |  |  |  | IP367 (protein) YSEGTFTSDYRILKERQAIDEFIAWLLKGGAAAGGSGSTASSGSGSATGGGGAATHTCPPC
 |  |  |  | high potency | high potencies | relatively lower potency | high potencies | IP088: Fc fusion, IgG1-TM, SEQ ID NO:105; agonist peptide YSEGTFTSDYSKLLEEEAVRLFIEWLVKGP (SEQ ID NO:15) (protein, also: Fc fusion, IgG1-TM) YSEGTFTSDYSKLLEEEAVRLFIEWLVKGPAAAGGSGSTASSGSGSATGGGGAATHTCPPCPAPEF
